Laboratory results as given in patent US6812210B2, “Urocortin-III and uses thereof” (priority 2001, dated 2004).
Numbering of substitutions follows the chain as printed. Where no end group is shown, it is not given here.

Columns and labels:
CRF-R1 = target: T1, CRF-R1 (Rattus norvegicus, UniProt P35353); test: cAMP accumulation in primary rat anterior pituitary cells expressing endogenous CRF-R1; type: cell-based; settings: FIG. 3B; Ucn III even at concentrations >1 μM
T1 construct: cells expressing endogenous CRF-R1 (cultured primary anterior pituitary cells, (5)) or CRF-R2β (A7r5 cells, (27)); endogenous in cells; host or cells: primary rat anterior pituitary cells in culture
T1 sequence (P35353 24-415): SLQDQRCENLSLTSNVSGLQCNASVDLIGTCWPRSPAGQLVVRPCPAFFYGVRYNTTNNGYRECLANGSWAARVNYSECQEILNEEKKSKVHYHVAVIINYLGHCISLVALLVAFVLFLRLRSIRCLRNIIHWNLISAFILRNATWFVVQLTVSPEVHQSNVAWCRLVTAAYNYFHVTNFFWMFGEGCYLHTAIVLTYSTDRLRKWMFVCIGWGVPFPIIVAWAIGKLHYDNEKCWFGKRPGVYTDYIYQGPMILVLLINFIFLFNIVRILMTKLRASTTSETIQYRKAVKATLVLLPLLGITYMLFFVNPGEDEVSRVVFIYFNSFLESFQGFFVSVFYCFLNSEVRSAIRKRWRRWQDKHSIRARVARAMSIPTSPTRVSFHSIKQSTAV
Protocol: The abilities of Ucn II and Ucn III to activate adenylate cyclase in cells expressing endogenous CRF-R1 (cultured primary anterior pituitary cells, (5)) or CRF-R2β (A7r5 cells, (27)). Rat aortic smooth muscle cells, A7r5, were plated into 48-well culture dishes and allowed to recover for 48 h. Cells were starved in DMEM/0.2% FBS overnight before the experiment. The cells were preincubated with 0.1 mM 3-isobutyl-1-methylxanthine for 30 min and then exposed to peptides for 20 min at 37° C. Rat anterior pituitary cells were established in culture (28) and treated with test peptides for 45 min at 37° C. Intracellular cAMP was extracted from all cells and measured from triplicate wells using a radioimmunoassay kit (Biomedical Technologies). Potencies were determined using the PRISM […].

[1] = target: T2, CRF binding protein (CRF-BP) (Homo sapiens, UniProt P24387); test: Binding to CRF binding protein by displacement of [D-125I-Tyr0]-hCRF; settings: data not shown
T2 sequence (P24387 25-322): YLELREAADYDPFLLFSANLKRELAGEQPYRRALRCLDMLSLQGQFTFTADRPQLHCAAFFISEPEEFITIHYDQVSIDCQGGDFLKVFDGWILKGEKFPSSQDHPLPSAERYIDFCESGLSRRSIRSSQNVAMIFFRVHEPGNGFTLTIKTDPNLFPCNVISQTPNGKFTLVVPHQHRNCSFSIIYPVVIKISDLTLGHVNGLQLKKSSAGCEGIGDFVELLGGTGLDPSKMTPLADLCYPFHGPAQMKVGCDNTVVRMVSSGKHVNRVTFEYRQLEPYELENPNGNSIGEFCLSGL

hCRF-R1 = target: T3, hCRF-R1 (Homo sapiens, UniProt P34998); test: cAMP accumulation in CHO cells stably expressing hCRF-R1; type: cell-based; settings: 1 μM
T3 construct: expressed in transfected cells
T3 sequence (P34998 24-415): T1 sequence (P35353 24-415) with R6H, N9S, T13A, V16I, V153M, A163G, V209I, H229Y, R356H
Protocol: The medium was changed at least 2 h before treatments to DMEM/0.1% FBS. The cells were preincubated with 0.1 mM 3-isobutyl-1-methylxanthine for 30 min and then exposed to peptides for 20 min at 37° C.

rats = test: Intravenous Ucn III in rats: glucagon secretion and blood sugar; type: in vivo, rat; settings: given intravenously to rats
Text: It has been shown by others that glucagon can act directly on the beta cell to stimulate insulin secretion in a paracrine manner. Thus, Ucn III may provide a means for the beta cell to signal the alpha cell, which produces glucagon which would then, in turn, drive the beta cell. Thus, Ucn III (or any CRF-R2 agonist) may be used to stimulate and sustain islet functions.

| Substance | Ability to increase cyclic AMP in cultured pituitary cells expressing CRF-R1 (CRF-R1) | Affinity for CRF-BP [1] | Activation of CRF-R1 (cAMP) at very high doses (hCRF-R1) | Glucagon secretion (rats) | Blood sugar levels (rats; subsequent to glucagon rise) |
| --- | --- | --- | --- | --- | --- |
| urocortin II (IVLSLDVPIGLLQILLEQARARAAREQATTNARILARVGHC; ends and bridges not checked; UniProt Q96RP3 72-112, looked up) [Ucn II, urocortin II, species (human or mouse) not specified at the place, reference compound] | low potency | neither Ucn II nor Ucn III exhibit appreciable affinity |  |  |  |
| urocortin III (FTLSLDVPTNIMNLLFNIAKAKNLRAQAAANAHLMAQI; ends and bridges not checked; UniProt Q969E3 120-157, looked up) [Ucn III, urocortin III, species (human or mouse) not specified at the place] | inactive | neither Ucn II nor Ucn III exhibit appreciable affinity | no activation | rapidly stimulated glucagon secretion | elevates blood sugar levels |
| urocortin [Urocortin (rat)] |  | subnanomolar |  |  |  |
